Source: PMC12860359 (2025)

T1: MBP-HA Rap1B WT (human, UniProt P61224-1 1-184)
T1 chain: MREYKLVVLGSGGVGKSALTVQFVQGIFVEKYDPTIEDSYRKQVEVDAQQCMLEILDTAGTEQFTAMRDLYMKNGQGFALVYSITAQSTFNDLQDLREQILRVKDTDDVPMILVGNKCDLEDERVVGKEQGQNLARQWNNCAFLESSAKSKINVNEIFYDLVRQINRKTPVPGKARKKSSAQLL


Key:
MBP-HA Rap1B WT [1] = biological target: T1, MBP-HA Rap1B WT; experiment: BLI; GDP-bound Rap1B
MBP-HA Rap1B WT [2] = biological target: T1, MBP-HA Rap1B WT; experiment: BLI; GTPγS-bound Rap1B
MBP-HA Rap1B WT [3] = biological target: T1, MBP-HA Rap1B WT; experiment: BLI; GTPγS-bound Rap1B

Kd (MBP-HA Rap1B WT [1]) [nM]	koff (MBP-HA Rap1B WT [2]) [s⁻¹]	Kd (MBP-HA Rap1B WT [3]) [nM]	Binder
722	0.000574		VHH-hFcS A47 (Fc fusion) EVQLQASGGGFVQPGGSLRLSCAASGFTSKNTIMGWFRQAPGKEREFVSAISSAPGYWEYYADSVKGRFTISRDNSKNTVYLQMNSLRAEDTATYYCAAPINQAPGRPIRSDQYWGQGTQVTVSS
295	0.00104	25.8	VHH-hFcS B14 (Fc fusion) EVQLQASGGGFVQPGGSLRLSCAASGFTSKNTIMGWYRQAPGKERELVSAISSAPGYWEYYADSVKGRFTISRDNSKNTVYLQMNSLRAEDTATYYCAAPINQAPGRPIRSDQYWGQGTQVTVSS
20.2			VHH-hFcS B89 (Fc fusion) EVQLQASGGGFVQPGGSLRLSCAASGFTSKNTIMGWFRQAPGKEREFVSAISSAPGYWEYYADSVKGRFTISRDNSKNTVYLQMNSLRAEDTATYYCAAPINQAPGRPIRWDQYWGQGTQVTVSS
